Test results as given in patent US20060014193A1, “Nucleoside phosphoramidates and nucleoside phosphoramidases” (priority 2004, published 2006).

What was measured:
[1] = substrate: NCCc1c[nH]c2ccccc12; test: Phosphoramidase fluorescence assay; type: biochemical, human; details: other: Table 5; pH 7.2; 25.0 °C
Protocol: The fluorescence of tryptophan (ex, 280 nm, em 360 nm) can be quenched when covalently attached to a nucleoside monophosphate, and nucleoside phosphoramidates of D- and L-tryptophan and tryptamine are excellent fluorescent substrates for hHINT1. Typically, after measurement of initial substrate fluorescence, hHINT1 was added to the reaction solution (HEPES buffer, pH 7.2, 25° C.) and the change in fluorescence over 2 min was determined by converting the slope into μM of substrate hydrolyzed per μg of enzyme per min with a standard curve. […] Based on the generation of chimeric polypeptides between the hHINTI and the hinT of E. coli, the preference for D enantiomers by the human HINT1 polypeptide is likely conferred by the C-terminus amino acids (e.g., the C-terminus 5, 6, 5 7, 8, 9, 10, or 11 amino acids) of the hHINT1 enzyme. […] In addition, both D-tryptophan phosphoramidates of cytosine and uridine were substrates. Initial rates were determined 10 during the first 10-20% of the reaction for variable substrate concentrations. The Michaelis-Menten constants, kcat and Km, for selected nucleoside phosphosphoramidates have been determined. (Table 4). As observed in the initial screening assay, for phosphoramidates containing L-tryptophan, hHINT1 has a 7-fold greater preference for AMP phosphoramidates of L-tryptophan than GMP.

[2] = substrate: NCCc1c[nH]c2ccccc12; test: Phosphoramidase fluorescence assay; type: biochemical, E. coli; details: other: Table 5; pH 7.2; 25.0 °C

B1: hHINT1 (Homo sapiens) (protein)
chain: MADEIAKAQVARPGGDTIFGKIIRKEIPAKIIFEDDRCLAFHDISPQAPTHFLVIPKKHISQISVAEDDDESLLGHLMIVGKKCAADLGLNKGYRMVVNEGSDGGQSVYHVHLHVLGGRQMHWPPG
In the case of B1, the Km [1] is reported as 1.74 ± 0.22 µM, the kcat [1] is reported as 0.97 ± 0.11 s⁻¹ and the kcat/Km [1] is reported as 558 mM⁻¹ s⁻¹.

B2: E. coli hinT (Escherichia coli K-12) (protein)
chain: MAEETIFSKIIRREIPSDIVYQDDLVTAFRDISPQAPTHILIIPNILIPTVNDVSAEHEQALGRMITVAAKIAEQEGIAEDGYRLIMNTNRHGGQEVYHIHMHLLGGRPLGPMLAHKGL
Work on B2 yielded a Km [2] of 30.1 ± 2.39 µM, a kcat [2] of 0.45 ± 0.04 s⁻¹ and a kcat/Km [2] of 15 mM⁻¹ s⁻¹.
